Source: patent US20180021429A1, “ANTICANCER AGENTS OR ANTIMETASTATIC AGENTS USING FSTL1 AND COMBINATION DRUG THEREOF” (PHARMA FOODS INTERNATIONAL CO., LTD., priority 2015, published 2018)
Entries after “also recorded” stand apart in the source; their conditions may differ.

Legend:
[1] = test system: human pancreatic cancer cell line Panc1; test: Inhibitory activity against activation of tumor cell by FSTL1, RANKL-/CCR2-positive cells (Examples 5, 7, 9-11); format: cell-based; settings: Example 10, FIG. 6C/36C; FSTL1 50 ng/mL; antibody 10 μg/mL; 3 days
Description: It is known that tumor cells activated by stimulation with FSTL1 highly express molecule groups promoting bone metastasis and increase metastatic invasive capacity (Cancer Research 73: 6185, 2013). Thus, […] cells/well of a human pancreatic cancer cell line Panc1 were suspended in 1 mL/well of D-MEM medium (GIBCO/Thermo Fisher Scientific Inc. Cat. No. C11885500BT) containing 10% fetal bovine serum, supplemented with 50 ng/mL (final concentration) of FSTL1 (R&D Systems, Inc.) and 10 μg/mL of the anti-FSTL1 antibody (#5-2, #5-8, #5-10, #5-43, #6-55, or #7-34) or its isotype mouse IgG (anti-DNP antibody) as a control antibody “Control”, and cultured under stimulation (6-well plate). 3 days thereafter, the number of cells was counted while the cells were stained with a PE-labeled anti-RANKL antibody (eBioscience Cat. No. 12-6619) and a PE-labeled anti-CCR2 antibody (R&D Systems, Inc. Cat. No. FAB151P) in order to examine the expression of markers indicating bone metastatic properties, and the contents of RANKL-positive cells and CCR2-positive cells were analyzed by flow cytometry using FACScan (Becton, Dickinson and Company) to calculate the numbers of cells per culture. […] Therefore, in Examples below, judgment was made with the number of cells as an index.
In the same way as in Example 5, a human pancreatic cancer cell line Panc1 was supplemented with 50 ng/mL (final concentration) of FSTL1 (R&D Systems, Inc.) and 10 μg/mL of the anti-FSTL1 antibody (the same clones as in Example 6) or a control antibody and cultured under stimulation.
3 days thereafter, the number of cells was counted while the cells were stained with a PE-labeled anti-RANKL antibody and a PE-labeled anti-CCR2 antibody, and the contents of RANKL-positive cells and CCR2-positive cells were analyzed by flow cytometry using FACScan (Becton, Dickinson and Company) to calculate the numbers of cells per culture (FIG. 5B).
(§1) In the same way as in Example 5, a human pancreatic cancer cell line Panc1 was supplemented with 20 ng/mL (final concentration) of FSTL1 and 10 μg/mL of the anti-FSTL1 antibody (#5-2, #5-8, or #6-55) or a control antibody and cultured under stimulation. 3 days thereafter, the number of cells was counted while the cells were stained with a PE-labeled anti-RANKL antibody and a PE-labeled anti-CCR2 antibody, and the contents of RANKL-positive cells and CCR2-positive cells were analyzed by flow cytometry using FACScan (Becton, Dickinson and Company) to calculate the numbers of cells per culture (FIG. 6B).
as §1, with “50” for “20”, “#5-3, #6-55, #7-34, #8-1, #8-4, #8-7,” for “#5-8,”, “#8-8)” for “#6-55)”, “culture.” for “culture (FIG. 6B).”
as §1, with “50” for “20”, “(#6-55)” for “(#5-2, #5-8, or #6-55)”, “culture.” for “culture (FIG. 6B).”
It is known that tumor cells activated by stimulation with FSTL1 highly express molecule groups promoting bone metastasis and increase metastatic invasive capacity (Cancer Research 73: 6185, 2013). […]

[2] = test system: human pancreatic cancer cell line Panc1; test: Inhibition of activation of tumor cells by FSTL1, Panc1 (Examples 5, 7, 9, 10, 11); format: cell-based; settings: Example 10: 50 ng/mL FSTL1, 10 μg/mL antibody, 3 days
Description: It is known that tumor cells activated by stimulation with FSTL1 highly express molecule groups promoting bone metastasis and increase metastatic invasive capacity (Cancer Research 73: 6185, 2013). Thus, 2×10^7 cells/well of a human pancreatic cancer cell line Panc1 were suspended in 1 mL/well of D-MEM medium (GIBCO/Thermo Fisher Scientific Inc. Cat. No. C11885500BT) containing 10% fetal bovine serum, supplemented with 50 ng/mL (final concentration) of FSTL1 (R&D Systems, Inc.) and 10 μg/mL of the anti-FSTL1 antibody (#5-2, #5-8, #5-10, #5-43, #6-55, or #7-34) or its isotype mouse IgG (anti-DNP antibody) as a control antibody “Control”, and cultured under stimulation (6-well plate). 3 days thereafter, the number of cells was counted while the cells were stained with a PE-labeled anti-RANKL antibody (eBioscience Cat. No. 12-6619) and a PE-labeled anti-CCR2 antibody (R&D Systems, Inc. Cat. No. FAB151P) in order to examine the expression of markers indicating bone metastatic properties, and the contents of RANKL-positive cells and CCR2-positive cells were analyzed by flow cytometry using FACScan (Becton, Dickinson and Company) to calculate the numbers of cells per culture. […] Therefore, in Examples below, judgment was made with the number of cells as an index.
as §1, with “supplemented with 50 ng/mL (final” for “supplemented with 20 ng/mL (final”, “of FSTL1 (R&D Systems, Inc.) and 10” for “of FSTL1 and 10”, “anti-FSTL1 antibody (the same clones as in Example 6) or a” for “anti-FSTL1 antibody (#5-2, #5-8, or #6-55) or a”, “culture (FIG. 99B).” for “culture (FIG. 6B).”
as §1, with “100B).” for “6B).”
as §1, with “50” for “20”, “#5-3, #6-55, #7-34, #8-1, #8-4, #8-7,” for “#5-8,”, “#8-8)” for “#6-55)”, “culture.” for “culture (FIG. 6B).”
as §1, with “50” for “20”, “(#6-55)” for “(#5-2, #5-8, or #6-55)”, “culture.” for “culture (FIG. 6B).”

Molecule | inhibitory activity against the expansion of RANKL-positive cells and CCR2-positive cells [1] | inhibitory activity against the expansion of RANKL-positive cells and CCR2-positive cells [2]
#5-2: chicken-mouse chimeric anti-FSTL1 antibody clone; variable regions SEQ ID NO: 763 (light), 765 (heavy) (antibody, V domains shown, mouse constant regions) VH: AVTLDESGGGLQTPGGGLSLVCKGSGFTFSSFNMFWVRQAPGKGLEWVAGVGKDGGTGYGAAVDGRATISKDNGQSTLRLQLNNLRAEDTGTYYCAKAAGGCSYGWCGSYVGDIDAWGHGTEVIVSS VL: ASTQPSSVSANPGEAVKITCSGGSGSYYGWYQQKSPGSAPVTVIYNNNQRPSDIPSRFSGSKSGSTATLTITGVQAEDEAVYFCGGYDSSTGHGGIFGAGTTLTVL | high inhibitory activity; also recorded: higher inhibitory activity | high inhibitory activity
#8-7: chicken-mouse chimeric anti-FSTL1 antibody clone; variable regions SEQ ID NO: 799 (light), 801 (heavy) (antibody, V domains shown, mouse constant regions) VH: AVTLDESGGGLQTPGGGLSLVCKGSGFTFSSFNMFWVRQAPGKGLEWVAGIGKDGVPKYGAAVDGRATISKDNGQSTLRLQLNNLRAEDTGTYFCAKAAGGCSYDWCGIYAGDIDTWGHGTEVIVSS VL: ASTQPSSVSANPGEAVKITCSGGSGSYYGWYQQKSPGSAPVTVIYNNNQRPSDIPSRFSGSKSGSTATLTITGVQAEDEAVYFCGGYDSSTGHGGIFGAGTTLTVL | high inhibitory activity; also recorded: higher inhibitory activity | high inhibitory activity
